According to PMC8113551 (2021):

biological target: GP[change] (Zaire ebolavirus | , UniProt Q05320); test: BLI

Row | Binder | Kd
1 | mAb100 (antibody, V domains shown) VH: QVQLQESGPGLVKPSDTLSLTCTVSGGSLSSFYWSWIRQPPGKGLEWIGYIYYSGSPNYSPSLESRVTMSVDTTRNQISLKLDSVTAADTAVYYCVRASRSYYWGSYRPTAFDSWGQGTLVTVSS VL: SYELTQPLSVSVSPGQTAIFTCSGDNLGDKYVCWFQQRPGQSPMLLIYQDNKRPSGIPERFSGSNSGNTATLTISGTQSTDEADYYCQTWDSTVVFGGGTKLTVL | < 1 pM
2 | KZ52 (antibody, V domains shown) VH: EVQLLESGGGLVKPGGSLRLSCAASGFTLINYRMNWVRQAPGKGLEWVSSISSSSSYIHYADSVKGRFTISRDNAENSLYLQMNSLRAEDTAVYYCVREGPRATGYSMADVFDIWGQGTMVTVSS VL: not shown | < 1 pM
3 | ADI-15946 (antibody, V domains shown) VH: EVQLVESGGGLVKPGGSLRLSCAASGFTFSNAWMSWVRQAPGKGLEWVGRIKSKTDGGTIDYAAPVKGRFTISRDDSKNTVYLQMTSLKTEDTAVYYCTTYTEDMRYFDWLLRGGETFDYWGQGTLVTVSS VL: DIRLTQSPSSLSASVGDRVTITCRASHYISTYLNWYQQKPGKAPKLLIYAASNLQSGVPSRFSGSGFGTDFSLTISSLQPEDFATYHCQQSYSTPGRYTFGQGTKVEIK | < 1 pM
4 | mAb114 (antibody, V domains shown) VH: EVQLVESGGGLIQPGGSLRLSCAASGFALRMYDMHWVRQTIDKRLEWVSAVGPSGDTYYADSVKGRFAVSRENAKNSLSLQMNSLTAGDTAIYYCVRSDRGVAGLFDSWGQGILVTVSS VL: DIQMTQSPSSLSASVGDRITITCRASQAFDNYVAWYQQRPGKVPKLLISAASALHAGVPSRFSGSGSGTHFTLTISSLQPEDVATYYCQNYNSAPLTFGGGTKVEIK | < 1 pM
5 | CA45 (antibody, V domains shown) VH: QVQLQEWGEGLVKPSETLSLTCAVYGGSISGYYHWNWIRLPPGKGLEWIGNIDGNSASTNYNPSLKTRVTISKDTSKNQISLKVRSLTAADTAVYYCARDPGFTIFGVVITSWSGLDSWGQGAVVTVSS VL: DIQMTQSPSSLSASVGDTVTITCRASQSISNNLAWYQQRPRRAPQLLIYAASNLASGVPSRFSGSGSGTDFTLTISSLQAEDFAAYYCQQHNTLPLTFGGGTKVEIK | < 1 pM
6 | c2G4 (antibody, V domains shown) VH: EVQLQESGGGLMQPGGSMKLSCVASGFTFSNYWMNWVRQSPEKGLEWVAEIRLKSNNYATHYAESVKGRFTISRDDSKRSVYLQMNTLRAEDTGIYYCTRGNGNYRAMDYWGQGTSVTVS VL: DIQMTQSPASLSVSVGETVSITCRASENIYSSLAWYQQKQGKSPQLLVYSATILADGVPSRFSGSGSGTQYSLKINSLQSEDFGTYYCQHFWGTPYTFGGGTKLEIK | < 1 pM
7 | ADI-15878 (antibody, V domains shown) VH: QVQLVQSGVTLVQPGGSLRVSCAASGFTFSSYAMSWVRQAPGKGLEWVSAISGLGGSTYYADSVKGRFTISRDNSKNTLYLQMNSLRAEDTAVYYCAKDHRVWAAGYHFDYWGQGALVTVSS VL: DIVLTQSPSTLSASVGDRVTITCRASQSISSWLAWYQQKPGEAPKLLISDASSLESGVPSRFSGSGSGTEFTLTISSLQPDDFATYYCQQYYSSPTFGGGTKVEIK | < 1 pM
8 | c4G7 (antibody, V domains shown) VH: EVQLQESGPELEMPGASVKISCKASGSSFTGFSMNWVKQSNGKSLEWIGNIDTYYGGTTYNQKFKGKATLTVDKSSSTAYMQLKSLTSEDSAVYYCARSAYYGSTFAYWGQGTLVTVS VL: DIQMTQSPASLSASVGETVTITCRASENIYSYLAWYQQKQGKSPQLLVYNAKTLIEGVPSRFSGSGSGTQFSLKINSLQPEDFGSYFCQHHFGTPFTFGSGTELEIK | < 1 pM
9 | c13C6 (antibody, V domains shown) VH: DVKLLESGGGLVQPGGSLKLSCAASGFSLSTSGVGVGWFRQPSGKGLEWLALIWWDDDKYYNPSLKSQLSISKDFSRNQVFLKISNVDIADTATYYCARRDPFGYDNAMGYWGQGTSVTVS VL: DIVMTQSPLSLSTSVGDRVSLTCKASQNVGTAVAWYQQKPGQSPKLLIYSASNRYTGVPDRFTGSGSGTDFTLTISNMQSEDLADYFCQQYSSYPLTFGAGTKLELR | < 1 pM
